Data on one substance can be found in IntAct's records for PubMed 11265755.

This experiment addresses esr1_human ESR1 (UniProt P03372).

esr1_human ESR1, sequence (P03372 whole entry): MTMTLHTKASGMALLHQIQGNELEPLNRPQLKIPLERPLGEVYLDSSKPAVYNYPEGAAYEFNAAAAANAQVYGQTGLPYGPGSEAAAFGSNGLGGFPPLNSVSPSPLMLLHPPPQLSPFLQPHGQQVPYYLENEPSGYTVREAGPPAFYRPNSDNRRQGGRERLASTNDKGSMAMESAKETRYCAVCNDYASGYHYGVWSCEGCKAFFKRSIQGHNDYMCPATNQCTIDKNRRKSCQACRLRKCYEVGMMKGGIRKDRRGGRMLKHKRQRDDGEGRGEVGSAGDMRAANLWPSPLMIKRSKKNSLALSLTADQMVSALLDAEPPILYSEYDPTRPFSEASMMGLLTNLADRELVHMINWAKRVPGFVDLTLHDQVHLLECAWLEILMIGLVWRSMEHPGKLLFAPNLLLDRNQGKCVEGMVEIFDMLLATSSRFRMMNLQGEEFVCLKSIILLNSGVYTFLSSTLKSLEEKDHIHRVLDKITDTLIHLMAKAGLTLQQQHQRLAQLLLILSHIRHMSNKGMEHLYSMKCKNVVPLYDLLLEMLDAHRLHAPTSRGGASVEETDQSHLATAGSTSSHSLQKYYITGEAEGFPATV

Turning to “Nuclear receptor coactivator 2 (Homo sapiens), Q15596 L644A;L645A;L693A;L694A;L748A;L749A”, the “effect of a mutation on the interaction” value is listed as “disrupting interaction”.
